Experimental data taken from the Immune Epitope Database (IEDB).

Columns and labels:
Assay in all cases: IEDB peptide-MHC binding, purified MHC/competitive/radioactivity; ≥ and ≤ were set here for values at or beyond the usual limits of such assays
Settings in all cases: source organism: Bordetella pertussis
[1] = target: HLA-B*44:03
[2] = target: HLA-B*57:01
[3] = target: HLA-A*02:01
[4] = target: HLA-B*53:01
[5] = target: HLA-B*07:02

For AAMQGAVVH, the IC50 [1] was no less than 78.2 µM.
Sequence AAPAAHADW has an IC50 [2] of 19.8 µM.
Sequence GLTDGVSRI has an IC50 [3] of 69.4 µM.
For HSLYASYEY, the IC50 [4] was 42.5 µM and the IC50 [2] was 0.116 µM.
Sequence IAHRTELRG has an IC50 [2] of 66.2 µM.
IENTAKLSG showed an IC50 [1] of 44.4 µM.
Work on LNDSKITMG yielded an IC50 [4] of no less than 78.2 µM.
In the case of LVYYESIAY, the IC50 [4] is reported as 12 µM.
In the case of RVTVSGGSL, the IC50 [5] is reported as 14.5 µM.
For SEAMAAWSE, the IC50 [1] was 7.6 µM.
In the case of SPQPIRATV, the IC50 [5] is reported as 0.149 µM.
With WLTWLAILA the IC50 [3] was 40.1 µM.
